{
  "source": "paper PMC9454698",
  "target": "stanniocalcin 2 (STC2), recombinant (mouse) (UniProt O88452)",
  "sequence (O88452 25-296)": "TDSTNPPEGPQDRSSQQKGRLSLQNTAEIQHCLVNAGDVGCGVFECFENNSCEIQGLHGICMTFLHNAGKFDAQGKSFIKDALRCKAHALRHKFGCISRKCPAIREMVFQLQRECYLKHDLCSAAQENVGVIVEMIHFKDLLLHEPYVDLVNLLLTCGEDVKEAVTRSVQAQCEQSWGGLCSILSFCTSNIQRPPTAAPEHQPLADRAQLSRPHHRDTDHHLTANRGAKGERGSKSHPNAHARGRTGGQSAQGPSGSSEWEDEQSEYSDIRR",
  "test": "quartz crystal microbalance (QCM); STC2 (50 µg/mL) immobilised by amine coupling on LNB chip, Attana Cell 200; HRG injected at 50, 100 and 200 nM; PBS running buffer, 10 µL/min, 22 °C, 500 s dissociation; 1:1 global interaction model",
  "data": [
    {"substance": "histidine-rich glycoprotein (HRG), recombinant, active (from UniProt Q9ESB3 19-525) (natural protein)", "values": [
      {"measurement": "Kd", "result": 55, "unit": "nM"},
      {"measurement": "koff", "result": 0.0014, "unit": "s⁻¹"},
      {"measurement": "kon", "result": 26000, "unit": "M⁻¹ s⁻¹"}
    ]}
  ]
}
